Laboratory results reported in CN101300273A.

What was measured:
人肿瘤细胞上的TR-2 (human) [1] = target: 人肿瘤细胞上的TR-2 (human) (UniProt O14763); test: cell-based or functional assay
人肿瘤细胞上的TR-2 (human) [2] = target: 人肿瘤细胞上的TR-2 (human) (UniProt O14763); test: cell-based assay, 10 μg/ml M412, anti-mouse IgG Fc-HRP, isotype control subtracted; CNS cancer line U251
人肿瘤细胞上的TR-2 (human) [3] = target: 人肿瘤细胞上的TR-2 (human) (UniProt O14763); test: cell-based assay, 10 μg/ml M412, anti-mouse IgG Fc-HRP, isotype control subtracted; lung cancer line A549
人肿瘤细胞上的TR-2 (human) [4] = target: 人肿瘤细胞上的TR-2 (human) (UniProt O14763); test: cell-based assay, 10 μg/ml M412, anti-mouse IgG Fc-HRP, isotype control subtracted; melanoma line UACC-62
人肿瘤细胞上的TR-2 (human) [5] = target: 人肿瘤细胞上的TR-2 (human) (UniProt O14763); test: cell-based assay, 10 μg/ml M412, anti-mouse IgG Fc-HRP, isotype control subtracted; CNS cancer line SF-295
人肿瘤细胞上的TR-2 (human) [6] = target: 人肿瘤细胞上的TR-2 (human) (UniProt O14763); test: cell-based assay, 10 μg/ml M412, anti-mouse IgG Fc-HRP, isotype control subtracted; melanoma line LOX IMVI
人肿瘤细胞上的TR-2 (human) [7] = target: 人肿瘤细胞上的TR-2 (human) (UniProt O14763); test: cell-based assay, 10 μg/ml M412, anti-mouse IgG Fc-HRP, isotype control subtracted; colon cancer line HT-29
人肿瘤细胞上的TR-2 (human) [8] = target: 人肿瘤细胞上的TR-2 (human) (UniProt O14763); test: cell-based assay, 10 μg/ml M412, anti-mouse IgG Fc-HRP, isotype control subtracted; colon cancer line KM-12
人肿瘤细胞上的TR-2 (human) [9] = target: 人肿瘤细胞上的TR-2 (human) (UniProt O14763); test: cell-based assay, 10 μg/ml M412, anti-mouse IgG Fc-HRP, isotype control subtracted; melanoma line RPMI 7951
人肿瘤细胞上的TR-2 (human) [10] = target: 人肿瘤细胞上的TR-2 (human) (UniProt O14763); test: cell-based assay, 10 μg/ml M412, anti-mouse IgG Fc-HRP, isotype control subtracted; breast cancer line T-47D
人肿瘤细胞上的TR-2 (human) [11] = target: 人肿瘤细胞上的TR-2 (human) (UniProt O14763); test: cell-based assay, 10 μg/ml M412, anti-mouse IgG Fc-HRP, isotype control subtracted; colon cancer line SW-707
人肿瘤细胞上的TR-2 (human) [12] = target: 人肿瘤细胞上的TR-2 (human) (UniProt O14763); test: cell-based assay, 10 μg/ml M412, anti-mouse IgG Fc-HRP, isotype control subtracted; colon cancer line SW-948
人肿瘤细胞上的TR-2 (human) [13] = target: 人肿瘤细胞上的TR-2 (human) (UniProt O14763); test: cell-based assay, 10 μg/ml M412, anti-mouse IgG Fc-HRP, isotype control subtracted; kidney cancer line SN12C
人肿瘤细胞上的TR-2 (human) [14] = target: 人肿瘤细胞上的TR-2 (human) (UniProt O14763); test: cell-based assay, 10 μg/ml M412, anti-mouse IgG Fc-HRP, isotype control subtracted; kidney cancer line UO-31
人肿瘤细胞上的TR-2 (human) [15] = target: 人肿瘤细胞上的TR-2 (human) (UniProt O14763); test: cell-based assay, 10 μg/ml M412, anti-mouse IgG Fc-HRP, isotype control subtracted; colon cancer line HCT-116
人肿瘤细胞上的TR-2 (human) [16] = target: 人肿瘤细胞上的TR-2 (human) (UniProt O14763); test: cell-based assay, 10 μg/ml M412, anti-mouse IgG Fc-HRP, isotype control subtracted; kidney cancer line Caki-1
人肿瘤细胞上的TR-2 (human) [17] = target: 人肿瘤细胞上的TR-2 (human) (UniProt O14763); test: cell-based assay, 10 μg/ml M412, anti-mouse IgG Fc-HRP, isotype control subtracted; kidney cancer line Caki-2
人肿瘤细胞上的TR-2 (human) [18] = target: 人肿瘤细胞上的TR-2 (human) (UniProt O14763); test: cell-based assay, 10 μg/ml M412, anti-mouse IgG Fc-HRP, isotype control subtracted; colon cancer line HCC-2998
人肿瘤细胞上的TR-2 (human) [19] = target: 人肿瘤细胞上的TR-2 (human) (UniProt O14763); test: cell-based assay, 10 μg/ml M412, anti-mouse IgG Fc-HRP, isotype control subtracted; ovarian cancer line IGROV1
人肿瘤细胞上的TR-2 (human) [20] = target: 人肿瘤细胞上的TR-2 (human) (UniProt O14763); test: cell-based assay, 10 μg/ml M412, anti-mouse IgG Fc-HRP, isotype control subtracted; prostate cancer line 22Rv1
人肿瘤细胞上的TR-2 (human) [21] = target: 人肿瘤细胞上的TR-2 (human) (UniProt O14763); test: cell-based assay, 10 μg/ml M412, anti-mouse IgG Fc-HRP, isotype control subtracted; prostate cancer line LNCaP
人肿瘤细胞上的TR-2 (human) [22] = target: 人肿瘤细胞上的TR-2 (human) (UniProt O14763); test: cell-based assay, 10 μg/ml M412, anti-mouse IgG Fc-HRP, isotype control subtracted; breast cancer line HS 578.T
人肿瘤细胞上的TR-2 (human) [23] = target: 人肿瘤细胞上的TR-2 (human) (UniProt O14763); test: cell-based assay, 10 μg/ml M412, anti-mouse IgG Fc-HRP, isotype control subtracted; liver cancer line NCI-SNU-1
人肿瘤细胞上的TR-2 (human) [24] = target: 人肿瘤细胞上的TR-2 (human) (UniProt O14763); test: cell-based assay, 10 μg/ml M412, anti-mouse IgG Fc-HRP, isotype control subtracted; prostate cancer line DU 145
人肿瘤细胞上的TR-2 (human) [25] = target: 人肿瘤细胞上的TR-2 (human) (UniProt O14763); test: cell-based assay, 10 μg/ml M412, anti-mouse IgG Fc-HRP, isotype control subtracted; breast cancer line MDA-MB-231
人肿瘤细胞上的TR-2 (human) [26] = target: 人肿瘤细胞上的TR-2 (human) (UniProt O14763); test: cell-based assay, 10 μg/ml M412, anti-mouse IgG Fc-HRP, isotype control subtracted; line A 673 (listed under leukemia)
人肿瘤细胞上的TR-2 (human) [27] = target: 人肿瘤细胞上的TR-2 (human) (UniProt O14763); test: cell-based assay, 10 μg/ml M412, anti-mouse IgG Fc-HRP, isotype control subtracted; non-small cell lung cancer line NCI-H460
人肿瘤细胞上的TR-2 (human) [28] = target: 人肿瘤细胞上的TR-2 (human) (UniProt O14763); test: cell-based assay, 10 μg/ml M412, anti-mouse IgG Fc-HRP, isotype control subtracted; non-small cell lung cancer line NCI-H2126
人肿瘤细胞上的TR-2 (human) [29] = target: 人肿瘤细胞上的TR-2 (human) (UniProt O14763); test: cell-based assay, 10 μg/ml M412, anti-mouse IgG Fc-HRP, isotype control subtracted; non-small cell lung cancer line HOP-62 (first mention)
人肿瘤细胞上的TR-2 (human) [30] = target: 人肿瘤细胞上的TR-2 (human) (UniProt O14763); test: cell-based assay, 10 μg/ml M412, anti-mouse IgG Fc-HRP, isotype control subtracted; non-small cell lung cancer line HOP-62 (second mention)

Sequence of UniProt O14763 (O14763 56-440): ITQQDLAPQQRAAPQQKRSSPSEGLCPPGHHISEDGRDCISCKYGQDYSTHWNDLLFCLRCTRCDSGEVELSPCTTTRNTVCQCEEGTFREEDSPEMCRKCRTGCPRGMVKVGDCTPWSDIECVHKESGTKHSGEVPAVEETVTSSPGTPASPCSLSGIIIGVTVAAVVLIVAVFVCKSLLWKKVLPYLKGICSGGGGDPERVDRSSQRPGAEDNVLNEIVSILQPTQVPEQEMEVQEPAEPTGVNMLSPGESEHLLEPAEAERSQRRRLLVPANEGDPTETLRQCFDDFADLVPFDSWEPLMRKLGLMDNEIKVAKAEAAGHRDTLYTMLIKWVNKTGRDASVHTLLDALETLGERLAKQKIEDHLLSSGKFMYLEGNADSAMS

- ED50 (细胞存活减少50%, 3H-胸苷掺入), COLO 205细胞 (人肿瘤细胞上的TR-2 (human) [1]): 1.85 µg/mL
- ED50 (细胞存活减少50%, 3H-胸苷掺入), MDA-231细胞 (人肿瘤细胞上的TR-2 (human) [1]): 0.6 µg/mL
- ED50 (细胞存活减少50%, 3H-胸苷掺入), WM35细胞 (人肿瘤细胞上的TR-2 (human) [1]): 1.85 µg/mL
- ED50 (细胞存活减少50%, 3H-胸苷掺入), WM793细胞 (人肿瘤细胞上的TR-2 (human) [1]): 1.85 µg/mL
- OD450nm (人肿瘤细胞上的TR-2 (human) [2]): 0.323 OD450
- OD450nm (人肿瘤细胞上的TR-2 (human) [3]): 0.381 OD450
- OD450nm (人肿瘤细胞上的TR-2 (human) [4]): 0.319 OD450
- OD450nm (人肿瘤细胞上的TR-2 (human) [5]): 0.354 OD450
- OD450nm (人肿瘤细胞上的TR-2 (human) [6]): 0.573 OD450
- OD450nm (人肿瘤细胞上的TR-2 (human) [7]): 0.869 OD450
- OD450nm (人肿瘤细胞上的TR-2 (human) [8]): 0.77 OD450
- OD450nm (人肿瘤细胞上的TR-2 (human) [9]): 0.322 OD450
- OD450nm (人肿瘤细胞上的TR-2 (human) [10]): 0.366 OD450
- OD450nm (人肿瘤细胞上的TR-2 (human) [11]): 0.323 OD450
- OD450nm (人肿瘤细胞上的TR-2 (human) [12]): 0.423 OD450
- OD450nm (人肿瘤细胞上的TR-2 (human) [13]): 0.313 OD450
- OD450nm (人肿瘤细胞上的TR-2 (human) [14]): 0.331 OD450
- OD450nm (人肿瘤细胞上的TR-2 (human) [15]): 0.41 OD450
- OD450nm (人肿瘤细胞上的TR-2 (human) [16]): 0.93 OD450
- OD450nm (人肿瘤细胞上的TR-2 (human) [17]): 0.443 OD450
- OD450nm (人肿瘤细胞上的TR-2 (human) [18]): 0.635 OD450
- OD450nm (人肿瘤细胞上的TR-2 (human) [19]): 0.312 OD450
- OD450nm (人肿瘤细胞上的TR-2 (human) [20]): 0.301 OD450
- OD450nm (人肿瘤细胞上的TR-2 (human) [21]): 0.63 OD450
- OD450nm (人肿瘤细胞上的TR-2 (human) [22]): 0.403 OD450
- OD450nm (人肿瘤细胞上的TR-2 (human) [23]): 0.354 OD450
- OD450nm (人肿瘤细胞上的TR-2 (human) [24]): 0.372 OD450
- OD450nm (人肿瘤细胞上的TR-2 (human) [25]): 0.408 OD450
- OD450nm (人肿瘤细胞上的TR-2 (human) [26]): 0.347 OD450
- OD450nm (人肿瘤细胞上的TR-2 (human) [27]): 0.326 OD450
- OD450nm (人肿瘤细胞上的TR-2 (human) [28]): 0.501 OD450
- OD450nm (人肿瘤细胞上的TR-2 (human) [29]): 0.313 OD450
- OD450nm (人肿瘤细胞上的TR-2 (human) [30]): 0.47 OD450
B1: 小鼠抗TR-2抗体M412 (antibody, mouse IgG1, V domains shown)
VH: KVQLQQSGTELVKPGASVKLSCKASGYTFTEYIIHWVKQRSGQGLEWIGWFYPGSGYIKYNEKFKDKATMTADKSSSTVYMELSRLTSEDSAVYFCTRHEEDGYYAAYWGQGTLVTVSA
VL: DIVMTQSHKFMSTSVGDRVSITCKASQDVSSAVAWYQQKPGQSPKLLIYWASTRHTGVPDRFTGSGSGTDYTLTISSVQAEDLALYYCQQHYSTPYTFGGGTKLEIKR
